Reference: patent US20180244758A1 (MAPP BIOPHARMACEUTICAL, published 2018)

Biological target: T1, RESTV GP (Reston virus (RESTV), UniProt Q66799 34-638)
T1 sequence: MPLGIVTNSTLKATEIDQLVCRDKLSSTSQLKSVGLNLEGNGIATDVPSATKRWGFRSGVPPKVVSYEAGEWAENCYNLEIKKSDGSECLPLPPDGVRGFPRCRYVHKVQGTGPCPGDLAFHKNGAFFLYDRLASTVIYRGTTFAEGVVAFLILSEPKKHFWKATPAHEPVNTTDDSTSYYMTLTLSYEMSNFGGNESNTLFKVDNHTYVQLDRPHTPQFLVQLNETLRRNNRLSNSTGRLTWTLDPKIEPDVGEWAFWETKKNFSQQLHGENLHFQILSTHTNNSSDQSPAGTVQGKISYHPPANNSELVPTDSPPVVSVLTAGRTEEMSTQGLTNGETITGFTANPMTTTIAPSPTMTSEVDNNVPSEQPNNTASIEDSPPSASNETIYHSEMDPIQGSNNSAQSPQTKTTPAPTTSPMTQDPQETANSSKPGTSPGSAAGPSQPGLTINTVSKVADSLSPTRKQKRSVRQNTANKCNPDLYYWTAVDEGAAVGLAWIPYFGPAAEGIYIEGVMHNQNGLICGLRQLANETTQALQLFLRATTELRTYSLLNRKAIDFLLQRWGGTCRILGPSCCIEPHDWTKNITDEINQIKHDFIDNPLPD
Test: ELISA, GP antigen coated

B1: mAb PE-16 (antibody, V domains shown)
VH: QVQLVQSGAEVTKPGASVKVSCKASGYTFTTYYMHWVRQAPGQGLEWVGIINPSGGITRYAQKFQGRVTLTRDTSTTTVYMELSSLRSEDTAVYYCARDRYPVLFATDYGMDVWGQGTTVTVSS
VL: DIVMTQSPATLSLSPGERATLSCRASQSVSGYLAWYQQKPGQAPRLLIYDASNRATGIPARFSGSGSGTDFTLTISSLEPEDFAVYYCQQRSIWPPGVTFGGGTKVEIK
binding result: no binding (tested: 0.2 µg/ml)
